Paper PMC5426849 (Molecular Biology of the Cell, 2017)
Non-standard residues stand in square brackets, D forms with d. No end group written: not given here. Flu = 5-carboxyfluorescein, coupled after removal of the final Fmoc group; pY = N[C@@H](Cc1ccc(OP(=O)(O)O)cc1)C(=O)O

B2: fluoresceinated cortactin phospho-Y421 peptide (peptide)
peptide: Flu-SSPI[pY]EDAA
B3: Arg SH2 domain, monomeric, cleaved from GST (domain or fragment)
chain: WYHGPVSRSAAEYLLSSLINGSFLVRESESSPGQLSISLRYEGRVYHYRINTTADGKVYVTAESRFSTLAELVHHHSTVADGLVTTLHYPA

Legend:
[1] = target: T1, purified recombinant full-length Vav2 (human, UniProt P52735 1-878); test: pull-down
T1 sequence: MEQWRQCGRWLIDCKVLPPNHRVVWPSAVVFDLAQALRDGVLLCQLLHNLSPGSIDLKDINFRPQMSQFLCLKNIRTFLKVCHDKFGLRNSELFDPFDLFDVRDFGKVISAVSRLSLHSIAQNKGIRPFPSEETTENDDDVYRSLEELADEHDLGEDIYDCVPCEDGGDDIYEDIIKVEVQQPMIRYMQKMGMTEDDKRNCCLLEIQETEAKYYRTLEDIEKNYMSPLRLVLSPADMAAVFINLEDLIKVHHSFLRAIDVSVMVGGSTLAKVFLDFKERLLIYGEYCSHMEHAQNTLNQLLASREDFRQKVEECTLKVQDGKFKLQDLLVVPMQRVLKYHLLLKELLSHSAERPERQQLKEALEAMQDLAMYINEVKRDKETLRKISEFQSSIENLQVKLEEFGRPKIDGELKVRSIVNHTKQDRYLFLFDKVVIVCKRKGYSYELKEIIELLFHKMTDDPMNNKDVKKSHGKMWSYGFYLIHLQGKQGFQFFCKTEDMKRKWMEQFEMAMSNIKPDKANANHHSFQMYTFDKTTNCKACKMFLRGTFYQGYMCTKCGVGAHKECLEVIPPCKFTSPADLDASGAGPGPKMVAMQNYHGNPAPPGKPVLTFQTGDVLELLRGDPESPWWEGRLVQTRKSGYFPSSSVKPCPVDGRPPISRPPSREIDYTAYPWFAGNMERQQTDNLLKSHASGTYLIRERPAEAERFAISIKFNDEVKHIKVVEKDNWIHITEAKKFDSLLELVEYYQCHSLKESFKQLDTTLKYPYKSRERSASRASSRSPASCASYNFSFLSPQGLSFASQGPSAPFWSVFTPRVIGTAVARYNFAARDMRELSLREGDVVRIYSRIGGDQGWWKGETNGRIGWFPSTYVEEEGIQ

[2] = target: Nck1 SH2 domain, monomeric, cleaved from GST (human, UniProt P16333 282-376); test: fluorescence polarisation
[3] = target: T2, Vav2 SH2 domain, monomeric, cleaved from GST (human, UniProt P52735 673-767); test: fluorescence polarisation
T2 sequence: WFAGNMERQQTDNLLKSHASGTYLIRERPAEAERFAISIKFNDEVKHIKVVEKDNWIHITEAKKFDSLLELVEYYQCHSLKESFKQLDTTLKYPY

[4] = target: B3; test: fluorescence polarisation
[5] = target: Src SH2 domain, monomeric, cleaved from GST (human, UniProt P12931 151-248); test: fluorescence polarisation
[6] = target: Brk SH2 domain, monomeric, cleaved from GST (human, UniProt Q13882 78-170); test: fluorescence polarisation
[7] = target: T3, Nap4/SOCS7 SH2 domain, monomeric, cleaved from GST (human, UniProt O14512 400-509); test: fluorescence polarisation
T3 sequence: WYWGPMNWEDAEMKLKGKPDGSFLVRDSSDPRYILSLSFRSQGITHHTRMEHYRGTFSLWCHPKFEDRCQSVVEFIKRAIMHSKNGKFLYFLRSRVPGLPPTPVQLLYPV

[8] = target: Fyn SH2 domain, monomeric, cleaved from GST (human, UniProt P06241 149-246); test: fluorescence polarisation
[9] = target: B2; test: fluorescence polarisation

B1: phosphorylated cortactin (natural protein)
chain: not shown
modifications: phosphotyrosine (confirmed by anti-phosphotyrosine Western blot; sites of this preparation not stated)
Kd [1]: 1.5 ± 0.3 µM

Flu-EDDT[pY]DGYE [fluoresceinated cortactin phospho-Y482 peptide]
Kd [2]: > 5 µM
Kd [3]: > 5 µM
Kd [4]: > 5 µM
Kd [5]: > 5 µM
Kd [6]: > 5 µM
Kd [7]: > 5 µM
Kd [8]: > 5 µM

B2
binding result [2]: binds
binding result [5]: binds
binding result [6]: binds
binding result [7]: binds
binding result [8]: binds

B3
fold greater affinity than for the phospho-Y466 peptide [9]: 2.5 fold
